Results published in the DeepSol protein solubility set.

Test: soluble on expression in E. coli; label from the status in PepcDB or PDB records

| Sequence | soluble on expression in E. coli |
| --- | --- |
| MGGSGVEGLSGKRCWLAVRNASLCQFLETSLQRSGIVVTTYEGQEPTPEDVLITDEVVSKKWQGRAVVTFCRRHIGIPLEKAPGEWVHSVAAPHELPALLARIYLIEMESDDPANALPSTDKAVSDNDDMMILVVDDHPINRRLLADQLGSLGYQCKTANDGVDALNVLSKNHIDIVLSDVNMPNMDGYRLTQRIRQLGLTLPVIGVTANALAEEKQRCLESGMDSCLSKPVTLDVIKQTLTLYAERVRKSRDS | soluble |
| MNPNFLDFEQPIADLQAKIEELRLVGNDNALNISDEISRLQDKSKALTENIFGNLSSWQIAQLARHPKRPYTLDYIGYLFSDFEELHGDRHFADDPAIVGGVARLDGSPVMVIGHQKGREVREKVRRNFGMPRPEGYRKACRLMEMAERFKMPILTFIDTPGAYPGIDAEERGQSEAIAWNLRVMARLKTPIIATVIGEGGSGGALAIGVCDQLNMLQYSTYSVISPEGCASILWKTAEKAPEAAEAMGITAERLKGLGIVDKVIDEPLGGAHRDPASMAESIRGELLAQLKMLQGLEMGELLERRYDRLMSYGAP | not soluble |
| SLLEECDFPTVKDIENEFEQLKEKNVRAVARLITMAEEQAKTKEAAVTLDDKLVSLKKLNQPSPPVLGITGTGGAGKSSLTDELVRRFLNEFTDKTVAILSIDPTKQKTGGALLGDRIRMNAIHSPRVFMRSLATRGSRTEISESIRDAIAVVKAAAYDLVIVETSGIGQGDAEITEIADISMYVMTSEYGAPSQLEKIDMIDFADVIAINKFDRKGSEDALRHVRKQYQRSHQRFDEPLEAMPVYGTIASQFNDIGTNTLFAAVIDILNKKCKTSWDTSIETSKEVMKQNIIIPPERTQYLRDIVQTVKQYK | soluble |
| MTAFIKFDGKKSSDFDLRIINDVEHDSSFYDVDQVKVPGRDGVVLKDNKRLEAIERSYPLRLYSKRRLTEVETDISNWLNVKGWKDLELSWEPDYIYKATHITPFSIKEVLRNFGRLKINFLIHPIKYLKTGKQEVPLVNGGTLQNPGNVQAKPILKIKGTGNGILTINDFETGLENVQSELVIDMERHLVYKDVLSAWDNIVRTERHRMPLFDVGQNKISWTGSFTITAVPNWGVKV | soluble |
| MISGLSHITLIVKDLNKTTAFLQNIFNAEEIYSSGDKTFSLSKEKFFLIAGLWICIMEGDSLQERTYNHIAFQIQSEEVDEYTERIKALGVEMKPERPRVQGEGRSIYFYDFDNHLFELHAGTLEQRLKRYHE | soluble |
| MSLKRSSICYRASKPLIASLVMSVWNAVHLSRRFAALPQAFYTPVHPQPLQNVRWGMWNSRLAQQFGLPEAPNDELLLSLSGQQLPADFSPVAMKYAGHQFGVYNPDLGDGRGLLLAEMATKQGEVFDIHLKGAGLTPYSRMGDGRAVLRSSLREYLCSEAMAGLGIATTRALALMSSETPVYREREERGALLVRLAHTHVRFGHFEHFFYTDQHANLKLLADKVIEWHFPDCVQTSKPYAAWFSQVVERTALMIAQWQAYGFNHGVMNTDNMSILGETFDYGPFAFLDDYDPNFICNHSDYQGRYAFDQQPRIGLWNLSALAHALSPLIDKDDLEAALGSYSERLNLHFSRLMRAKLGLATQQEGDGELFADFFALLANNHTDYTRFLRELSCLDRQGNEAVIDLVLDREAAKTWLTRYLERAARELGQEGRPISTRERCQAMRQVNPKYILRNYLAQQAIEFAERGDFEEMQRLATVLASPYAEHPEFERYAKLPPEWGKKLEISCSSEGGSHHHHHH | soluble |
| MDPSENVFKYETAYDLLVRLGAERLFLRTCLSILDPVLELHPGKCYEIDGDLGVGKTQICYSFAAKFLQTKKTAKMGWIGATPLRTDHLLLHIEHFGNQTNEDILDRIVCKRVEKIAELQDSLTRFLDTINLQLVIVENIDAILHDTVYHKEMGRSMQSDVVERIRKLTKLEITVILTNHITHWRGYPAPALGAFWSSQINNRFFIEKRNDDSDIRIVSAMKGEQDDGMNRIEFKIGDRGLKAVE | not soluble |
| MAILAFDLGGSSVKYGVWTGKELTNQGSFPTPGSWEEMKAHLYSVYADKRNESISGVAFSSPGVVDEKSQQILGISAIPYIHHFNIYEELEALFGLPVTIENDANCAGLAEIYEGAAKGKKEVLFVVIGTGIGGAIFRNGELYKGAHLYGGEFGLNFLSNGQTFSEIGTAVKMAQRYCERIGVEKQAVTGEEVFELAQRGDEIAREEVNNFYDYLTQGLFGLQFSYDPEMIVLGGGVSAKEGLLAEINRRMLTHLQTFELKDFVPEIVTCHYQNDANLIGAAANFQAKTNWEL | not soluble |
| MGSDKIHHHHHHMDIENMKAFNKVAELKSISAAANELHHLQSNMSNKIKNIEKQFQTQLFFRHSNGVELTKEGEKIYQQFKKMILLWEETIDIINNEEETISIGITQSSLPMEFNTIIKEFYQQFPNKKLSIVSGSTSELIPKIANRELTIAYVAELEKENLFQDSQIISQTLSWDKLVFAGNTAGKSVQKILAEERLYVFSKQCYSYRALAALINDFNIPNVSISEINIPETLVEICNNELGVGIIPESIALNYHFLNYETLPTEYAALRKTLIYHADHTISNGEKWLIEKSKPAFKS | not soluble |
| MGSDKIHHHHHHMKISCKNVGVILPIFNSSHRSFKKTFLQAASGGRIGSSNTGIIEVEALKKIDFTLTEGNRLALIGHNGSGKTTLLRVLAGAYKPTSGKYECIGRVTSLIDPMMGMDGELTGLENIKLRGLFLGLSKNEIKNITEDVIEFSELGDFIKIPVRTYSSGMVLRLGFSISTAINPEILLMDEWMSVGDSDFKRKAEMRLNSFISKAGIMVMATHDDELAKSVCNKFIRLEHGEIVSKGGF | not soluble |
| MSLSLDQESIEHDLKLTSEEIFHSNGKYIPPMLNTLGQHLSVRKEFFQNFLTFVAKNFNYKISPELKLDLIEKFEILNCCIKFNSIIRQSDVLNDIWEKTLSNYNLTQNEHLTTKTVVINSPDVFPVIFKQFLNHVVFVLFPSQNQNFKLNVTNLINLCFYDGILEEGEKTIRYELLELDPMEVDTSKLPWFINFDYLNCINQCFFDFTFACEEEGSLDSYKEGLLKIVKILYYQFNQFKIWINTQPVKSVNANDNFININNLYDDNHLDWNHVLCKVNLKEQCIQIAEFYKDLSGLVQTLQTLDEGHHHHHH | not soluble |
| MTVWSKLLSALRGGANEVGEAIVDSQALRILDQEIRDADVELRKSREALASIMARHRLAQERVEKGAAQVAEYEQYAIKALEAGNEELAREVAEKIATLENQLEGERAQVAEFAASVAQLRKSVSQAEGNIRQLKQQVDTVKATESVQKAQMAVAQRYGNSKSKLQTAVDSLERIKQRQAERAATMDAAAELASAAAPDDALDAKLRAAGIKASGNSVDGVLARLKEKGKAAAALEHHHHHH | not soluble |
| MDEYRELISVLPLETVEYAFAYGSGAIQQQNEDKSEKMVDFVIVTKNAQEFHRDNILKNPQHYSLLRLMGPKMIEKIQCNFAARVYYNTHVKVGKRKIKYGVISYENVKQDLLDWRWIYISGRLHKPVLEVIKPRQDMCDLVTENRRSALHSSLLLLPESFTLKQLFHKIVGLSYTGDFRMVVGEDKNKINKIVEGNYEELLRVYEPLMNDDARLSVMSPAKLIQDGSTTAIYHRLNLLPSEVLNRIQKNMNRVQKRQRDAEEVIFSLAHRHDVAATVETAIGGIIRPVSLSQTAKNAFSAGVTRSIIYSMAKMSKFLKSK | not soluble |
| MGSDKIHHHHHHMTITPHTLAVWADDQRAGLLDRSIDQHQYVFAYDPAAESPSAQVSLTMPVRLESWASRDLHPIFQMNLPEGALLEAIRRTVSKLIGEDDLTILRVTGGNQVGRNRFSLAADPAPGIVETKESLDELLSYPDTEELFNDLVAKYALRSGVSGVQPKVMLDATERGTAAVGGYIVKSWGSEYPQLAANEFFCMTAAKRAGLSVPEFHLSENGGLFVMKRFDLGERGEPLGFEDICSLQALATTRKYSSTYERVARTIKDFVSPAALLVAREQFFASLVLSCMVRNGDAHLKNFGVLYDRPGQLVQLAPVYDVVTTTAYIPKDVPALSLFGTKKWWSRRALERFAVSHLSLPVGRVGQILEKVAEAVTDTRGIVSAYMVEHPEYREVGNLQLASWEVGVANLVLI | not soluble |
| LARMSEREIDISLGTTVGRSLWRLAQGHDDREVAPRAIAKQISVEHTYPKDLVTSRAVDTAIIRASRESHRRLLDDGRGARTVSVKLRMADFRIESRSATLPYATDNLDTVTATALKLARYPDEVGPIRLVGVGLSGLEDARQDILFPELDRVVPVKDTDFEVGVSDPHDSDLEISTTDESPTAIGWRATQDIWHPDYGHGWVQGLGHGKITVRFETRTTGPGKVRTFDTNDALLSSADPINSLDWS | not soluble |
| VETASLDVYAKYVLRSICQQEWVGERCLKSLCEDSNDLQDPVLSSAQAQRLMQLICYPHRLLDNEDGENPQRQRIKRILQNLDQWTMRQSSLELQLMIKQTPNNEMNSLLENIAKATIEVFQRSAETGSSSGSTASNMPSSSKTKPVLSSLERSGVWLVAPLIAKLPTSVQGHVLKAAGEELEKGQHLGSSSRKERDRQKQKSMSLLSQQPFLSLVLTCLKGQDEQREGLLTSLYSQVHQIVN | not soluble |
| MSLDIRGIGYLGFESPNIEAWRSYGPEVLGLAIAPSPEDEPDALYLKMDDRRYRLAFQPGPIDKLAYIGWECVNRIAFEKAVKKLQDAGIAVEMGSDDLKARRAVRDVVRFKDPVGYQYELFYGQKGEPDSFVPGRRHGGFNTYGRGFGHVVVMTPEYGPELDDFLINIMGFQWYGSGAGKGKTGFYRAGLNNLTSHDIGYGHAPGRMGIQHIGLLTGDLRDVGETWDIVNKRQIQVQMTLGQHTQDPHFSFYHFSPSGFAVEVIAETHPWPGDPFELNAERLSYWGHQLVGPILGTEGHHHHHH | not soluble |
| MLGNLKPQAPDKILALMGEFRADPRQGKIDLGVGVYKDATGHTPIMRAVHAAEQRMLETETTKTYAGLSGEPEFQKAMGELILGDGLKSETTATLATVGGTGALRQALELARMANPDLRVFVSDPTWPNHVSIMNFMGLPVQTYRYFDAETRGVDFEGMKADLAAAKKGDMVLLHGCCHNPTGANLTLDQWAEIASILEKTGALPLIDLAYQGFGDGLEEDAAGTRLIASRIPEVLIAASCSKNFGIYRERTGCLLALCADAATRELAQGAMAFLNRQTYSFPPFHGAKIVSTVLTTPELRADWMAELEAVRSGMLRLREQLAGELRDLSGSDRFGFVAEHRGMFSRLGATPEQVKRIKEEFGIYMVGDSRINIAGLNDNTIPILARAIIEVGV | soluble |
| MGGITMTAVVSNRDKINFHEVADHYHSNKIIFGIKFLKNWALERLASCAPVPSWRAKLHKMRGVNIGENVYIGYDVIFDRIHPEMITVGDYAEIGDRCILSAHSRGSLTTRQAYPRSIAPIKIGRGVSVNPGCIITQGVEIGDNSIIGVGSVVSRNISPNSLALGYPAKVIKKLDG | soluble |
| MSVTKLNNGKWQARVSYKDDDGNYKSVTHLEKRKTDAVEWETKTKNALLEGADLSRSTESLKHYFLDWIRIYKTDGVSRHTHELYMGNWRHIAAYFKDRPMSAIKRPDYQKFLNEFGRSHGIATSHKLHQQVHTAIKDAVADGILKRDFAYKAHVTGRPPKPVEEKYLTLSDYKKLRKYLIKTADYDHMTMLMMLFQLETGTRFEEAAGLTWDNLDLNNGIVHIKQQWDARRQTFRPTKGNGQADGDITIGPAYCRFMRSYRSTQKDYLELHEMKNPKNLVFWSKLGKIVGNGNANEELGRICNRLKINKVTTHAMRHTHASILILNHESLPYVQHRLRHQKLETTVNTYVHLIEEENGVSDKKATELMDEGF | not soluble |
| MDEPVDVELVLAVDVSLSMSADELEIQRHGYAAALTHDNVLQAIADGAHGKIAVTYVEWAGTTWQRVIVPWTVIANRADAERVVAQLSAQPPNSARRTSISGALEFGSDLFAESGYEGTKRVIDISGDGPNNQGAPVNLTRDGVVRQGIVINGLPLMTRGGLSGAYDVNDLDRYYSDCVIGGPGAFMIPVNDWTQFPEAIRRKLVLELAGLEHHHHHH | soluble |
